Reference: patent publication US20100286365

How the values were obtained:
[1] = test system: GLP-1(7-37)-GG-(S)-2,6-diamino-1-(thiazolidin-2-cyano-3-yl)hexan-1-one amide
[2] = test system: GLP-1(7-37)-GG-(S)-2,6-diamino-1-(thiazolidin-3-yl)hexan-1-one amide
Sequence of GLP-1(7-37)-GG-(S)-2,6-diamino-1-(thiazolidin-3-yl)hexan-1-one amide (chain, as listed by the source): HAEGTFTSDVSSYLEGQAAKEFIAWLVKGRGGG

Sequence of GLP-1 (chain, as listed by the source): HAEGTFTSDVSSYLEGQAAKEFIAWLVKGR

Substance: Recombinant DPP-IV
- hydrolysis catalyzed by DPP-IV (mass spectrometry) [1]: the expected product ions were not observed, indicating that these two compounds are DPP-IV resistant under the test conditions
- percentage of hydrolysis catalyzed by DPP-IV (mass spectrometry) (GLP-1): the DPP-IV catalyzed cleavage afforded the GLP-1 (9-36) product in 17% yield
- hydrolysis catalyzed by DPP-IV (mass spectrometry) [2]: the expected product ions were not observed, indicating that these two compounds are DPP-IV resistant under the test conditions
